Patent US20240165282A1, “CONFORMATIONAL CONSTRAINED SOMATOSTATIN RECEPTOR 3 PEPTIDE LIGANDS AND THEIR CONJUGATES AND USES THEREOF” (STARGET PHARMA LTD., priority 2021, published 2024)
*1 amine or outer side, *2 acyl side, *3 side chain or, on linkers, in order; H or OH if unused. Bridges are numbered along the chain shown (N, C = ends). [ ]: non-standard residue; d: D form. The star is where a group is joined. DOTA = O=C(O)CN1CCN(CC(=O)O)CCN(CC(=O)*)CCN(CC(=O)O)CC1; N(2-mercaptoethyl)Gly = O=C(CN(CCS[*:3])[*:1])[*:2]; Orn = NCCC[C@H](N)C(=O)O; GABA = NCCCC(=O)O

Legend:
Test in all cases: Radioligand binding, displacement of 125I-Tyr11-SRIF-14
[1] = target: SSTR3 (Homo sapiens, UniProt P32745); set-up: host or cells: CHO (Chinese Hamster Ovary) cells, membrane preparation; settings: for affinity and selectivity to SSTR3 (in words): binding data; for % displacement of [^125I] Tyr^11-SRIF-14: hSSTR-3
Description: (§1) The binding to human cloned receptors SSTR-1, or SSTR-2 or SSTR-3 evaluated in stable and selective transfected CHO (Chinese Hamster Ovary) cells and binding to STSR-4 and SSTR-5 in stable and selective transfected Chem-1 (Rat ChemiSCREEN) cells. […] The binding reactions were filtered, the filters were washed, and the bound radioactivity was counted using a gamma counter.
(§2) The following table depicts the conditions of binding assay to each of the somatostatin receptors used for the evaluations of binding affinities of the tested peptides. All assays were performed by quantitation method of radioligand binding under 25° C. The vehicle was 1% DMSO, the incubation buffer was 25 mM HEPES, pH 7.4, 5 mM MgCl2, 1 mM CaCl2, 0.1% BSA. […] The significance criteria were >50% of max inhibition. […] This specific binding data used for calculation of Bmax values which is the concentration of each of the expressed cloned receptor in its transfected cell system.
(§3) The Results of IC50 values were determined by a non-linear, least squares regression analysis using MathIQ™ (ID Business Solutions Ltd., UK). […] The Hill coefficient (nH), defining the slope of the competitive binding curve, was calculated using MathIQ™.

[2] = target: T1, hSSTR-4 (Homo sapiens, UniProt P31391); settings: hSSTR-4
T1 construct: host or cells: Chem-1 (Rat ChemiSCREEN) cells, membrane preparation
Description: as §1, §2, §3

[3] = target: SSTR5 (Homo sapiens, UniProt P35346); set-up: host or cells: Chem-1 (Rat ChemiSCREEN) cells, membrane preparation; settings: hSSTR-5
Description: as §1, §2, §3

[4] = target: SSTR1 (Homo sapiens, UniProt P30872); set-up: host or cells: CHO (Chinese Hamster Ovary) cells, membrane preparation; settings: hSSTR-1
Description: as §1, §2, §3

[5] = target: SSTR2 (Homo sapiens, UniProt P30874); set-up: host or cells: CHO (Chinese Hamster Ovary) cells, membrane preparation; settings: hSSTR-2
Description: as §1, §2, §3

Chain of SSTR5 (P35346 whole entry): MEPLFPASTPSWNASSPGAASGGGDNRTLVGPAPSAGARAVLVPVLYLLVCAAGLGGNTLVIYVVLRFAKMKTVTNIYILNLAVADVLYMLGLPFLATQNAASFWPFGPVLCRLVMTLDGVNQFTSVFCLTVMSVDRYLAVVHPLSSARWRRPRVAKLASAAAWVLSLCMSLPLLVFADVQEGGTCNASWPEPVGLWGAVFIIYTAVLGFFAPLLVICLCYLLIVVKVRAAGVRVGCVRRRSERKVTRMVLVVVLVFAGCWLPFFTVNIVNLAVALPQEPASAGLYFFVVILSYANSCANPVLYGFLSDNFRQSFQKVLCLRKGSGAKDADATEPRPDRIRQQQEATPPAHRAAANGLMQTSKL
Chain of SSTR1 (P30872 whole entry): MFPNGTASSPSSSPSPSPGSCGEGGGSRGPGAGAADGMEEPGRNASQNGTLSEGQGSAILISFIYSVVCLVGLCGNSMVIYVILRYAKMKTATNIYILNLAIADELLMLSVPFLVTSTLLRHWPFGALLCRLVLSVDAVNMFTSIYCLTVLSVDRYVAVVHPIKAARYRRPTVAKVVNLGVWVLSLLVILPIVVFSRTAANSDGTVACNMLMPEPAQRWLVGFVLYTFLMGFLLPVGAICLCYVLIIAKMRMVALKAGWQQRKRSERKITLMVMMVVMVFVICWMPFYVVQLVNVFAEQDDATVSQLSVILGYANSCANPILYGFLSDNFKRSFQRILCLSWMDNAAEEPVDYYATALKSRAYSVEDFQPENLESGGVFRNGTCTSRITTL
T1 sequence (P31391 whole entry): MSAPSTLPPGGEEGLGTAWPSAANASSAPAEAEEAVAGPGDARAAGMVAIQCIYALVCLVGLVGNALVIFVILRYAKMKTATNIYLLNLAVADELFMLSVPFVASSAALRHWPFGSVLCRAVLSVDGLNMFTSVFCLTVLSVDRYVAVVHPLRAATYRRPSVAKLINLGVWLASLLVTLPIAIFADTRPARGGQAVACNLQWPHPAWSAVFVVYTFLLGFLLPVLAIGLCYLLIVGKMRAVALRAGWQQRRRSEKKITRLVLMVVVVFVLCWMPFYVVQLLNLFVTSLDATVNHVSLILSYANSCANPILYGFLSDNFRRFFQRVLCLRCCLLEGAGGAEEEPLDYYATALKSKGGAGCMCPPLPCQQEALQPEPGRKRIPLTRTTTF
Chain of SSTR2 (P30874 whole entry): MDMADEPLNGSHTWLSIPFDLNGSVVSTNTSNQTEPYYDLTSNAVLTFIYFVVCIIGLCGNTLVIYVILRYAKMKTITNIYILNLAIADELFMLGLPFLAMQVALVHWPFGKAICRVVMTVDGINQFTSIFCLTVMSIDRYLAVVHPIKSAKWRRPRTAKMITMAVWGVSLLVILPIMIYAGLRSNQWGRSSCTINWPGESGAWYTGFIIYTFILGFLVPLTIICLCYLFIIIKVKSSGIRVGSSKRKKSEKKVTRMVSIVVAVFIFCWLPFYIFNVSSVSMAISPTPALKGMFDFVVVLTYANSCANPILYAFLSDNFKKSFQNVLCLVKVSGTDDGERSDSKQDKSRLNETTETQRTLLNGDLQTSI
Chain of SSTR3 (P32745 whole entry): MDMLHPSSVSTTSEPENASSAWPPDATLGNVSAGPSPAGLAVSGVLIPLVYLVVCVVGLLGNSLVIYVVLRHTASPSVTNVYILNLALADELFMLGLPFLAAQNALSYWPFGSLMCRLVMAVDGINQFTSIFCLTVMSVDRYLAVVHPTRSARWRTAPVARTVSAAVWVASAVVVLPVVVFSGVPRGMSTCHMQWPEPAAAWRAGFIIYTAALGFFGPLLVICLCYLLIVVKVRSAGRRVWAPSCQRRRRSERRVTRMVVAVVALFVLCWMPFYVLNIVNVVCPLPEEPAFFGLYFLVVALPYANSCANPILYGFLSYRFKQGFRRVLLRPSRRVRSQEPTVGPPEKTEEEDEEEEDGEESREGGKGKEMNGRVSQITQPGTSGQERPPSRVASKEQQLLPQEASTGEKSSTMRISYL

Substance | affinity and selectivity to SSTR3 (in words) [1] | % displacement of [^125I] Tyr^11-SRIF-14 ([1]; at 1 nM (in brackets)) [%] | % displacement of [^125I] Tyr^11-SRIF-14 ([1]; at 10 nM) [%] | % displacement of [^125I] Tyr^11-SRIF-14 ([2]; at 1 nM (in brackets)) [%] | % displacement of [^125I] Tyr^11-SRIF-14 ([2]; at 10 nM) [%] | % displacement of [^125I] Tyr^11-SRIF-14 ([3]; at 1 nM (in brackets)) | % displacement of [^125I] Tyr^11-SRIF-14 ([3]; at 10 nM) | % displacement of [^125I] Tyr^11-SRIF-14 ([4]; at 1 nM (in brackets)) [%] | % displacement of [^125I] Tyr^11-SRIF-14 ([4]; at 10 nM) [%] | % displacement of [^125I] Tyr^11-SRIF-14 ([5]; at 1 nM (in brackets)) | % displacement of [^125I] Tyr^11-SRIF-14 ([5]; at 10 nM)
DOTA-Arg^1-Gly^2-Asp^3-D-Phe^4-Arg^5-Cys^6-Phe^7-D-Trp^8-Lys^9-Thr^10-Phe^11-NTEG^12- NH2 (cyclo 6-12) ({DOTA}-RGD[dF]RCF[dW]KTF[N(2-mercaptoethyl)Gly]-NH2; disulfide 6-12; SMILES C[C@@H](O)[C@@H]1NC(=O)[C@H](CCCCN)NC(=O)[C@@H](Cc2c[nH]c3ccccc23)NC(=O)[C@H](Cc2ccccc2)NC(=O)[C@@H](NC(=O)[C@H](CCCNC(=N)N)NC(=O)[C@@H](Cc2ccccc2)NC(=O)[C@H](CC(=O)O)NC(=O)CNC(=O)[C@H](CCCNC(=N)N)NC(=O)CN2CCN(CC(=O)O)CCN(CC(=O)O)CCN(CC(=O)O)CC2)CSSCCN(CC(N)=O)C(=O)[C@H](Cc2ccccc2)NC1=O) [SEQ ID NO: 14] | did not interfere with the affinity and selectivity of SEQ ID NO: 3 to SSTR3 | 46 | 89 | – | – | – | – | – | – | – | –
DOTA-D-Phe^1-Arg^2-Cys^3-Tyr^4-D-Trp^5-Lys^6-Thr^7-Phe^8-NTEG^9-NH2 (cyclo 3-9) ({DOTA}-[dF]RCY[dW]KTF[N(2-mercaptoethyl)Gly]-NH2; disulfide 3-9; SMILES C[C@@H](O)[C@@H]1NC(=O)[C@H](CCCCN)NC(=O)[C@@H](Cc2c[nH]c3ccccc23)NC(=O)[C@H](Cc2ccc(O)cc2)NC(=O)[C@@H](NC(=O)[C@H](CCCNC(=N)N)NC(=O)[C@@H](Cc2ccccc2)NC(=O)CN2CCN(CC(=O)O)CCN(CC(=O)O)CCN(CC(=O)O)CC2)CSSCCN(CC(N)=O)C(=O)[C@H](Cc2ccccc2)NC1=O) [SEQ ID NO: 25] | – | 65 | 94 | 5 | 8 | 6% | 16% | 1 | 15 | 0(0) % | 0(0) %
DOTA-D-Phe^1-Glu^2-Glu^3-Orn^4-Cys^5-Phe^6-D-Trp^7-Lys^8-Thr^9-Phe^10-NTEG^11-NH2 (cyclo 5-11) ({DOTA}-[dF]EE[Orn]CF[dW]KTF[N(2-mercaptoethyl)Gly]-NH2; disulfide 5-11; SMILES C[C@@H](O)[C@@H]1NC(=O)[C@H](CCCCN)NC(=O)[C@@H](Cc2c[nH]c3ccccc23)NC(=O)[C@H](Cc2ccccc2)NC(=O)[C@@H](NC(=O)[C@H](CCCN)NC(=O)[C@H](CCC(=O)O)NC(=O)[C@H](CCC(=O)O)NC(=O)[C@@H](Cc2ccccc2)NC(=O)CN2CCN(CC(=O)O)CCN(CC(=O)O)CCN(CC(=O)O)CC2)CSSCCN(CC(N)=O)C(=O)[C@H](Cc2ccccc2)NC1=O) [SEQ ID NO: 22] | did not interfere with the affinity and selectivity to SSTR3 | 0 | 49 | 0 | 3 | 0(0) % | 0(0) % | 8 | 7 | 0(0) % | 0(0) %
DOTA-D-Phe^1-Lys^2-Cys^3-Tyr^4-D-Trp^5-Lys^6-Thr^7-Phe^8-NTEG^9 -NH2 (cyclo 3-9) ({DOTA}-[dF]KCY[dW]KTF[N(2-mercaptoethyl)Gly]-NH2; disulfide 3-9; SMILES C[C@@H](O)[C@@H]1NC(=O)[C@H](CCCCN)NC(=O)[C@@H](Cc2c[nH]c3ccccc23)NC(=O)[C@H](Cc2ccc(O)cc2)NC(=O)[C@@H](NC(=O)[C@H](CCCCN)NC(=O)[C@@H](Cc2ccccc2)NC(=O)CN2CCN(CC(=O)O)CCN(CC(=O)O)CCN(CC(=O)O)CC2)CSSCCN(CC(N)=O)C(=O)[C@H](Cc2ccccc2)NC1=O) [SEQ ID NO: 24] | – | 66 | 88 | – | – | – | – | – | – | – | –
DOTA-GABA-D-Phe^1-Arg^2-Cys^3-Phe^4-D-Trp^5-Lys^6-Thr^7-Phe^8-NTEG^9-NH2 (cyclo 3-9) ({DOTA-GABA}-[dF]RCF[dW]KTF[N(2-mercaptoethyl)Gly]-NH2; disulfide 3-9) [SEQ ID NO: 7] | increased the affinity and selectivity | – | – | – | – | – | – | – | – | – | –
